The values that follow come from article PMC11239674.

Assay in all cases: MST
For series [1], the target named is T1, eYFP-AtGRP7RGG (Arabidopsis thaliana) (UniProt Q03250).
T1 sequence: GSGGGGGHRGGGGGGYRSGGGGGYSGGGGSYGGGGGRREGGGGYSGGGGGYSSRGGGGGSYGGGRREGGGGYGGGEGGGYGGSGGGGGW
Conditions: 25 mM Tris-HCl pH 8.0, 150 mM NaCl (150 mM LiCl for Sc1 LiCl), 1 mM DTT, 0.1 mg/ml BSA; 20 nM Cy5-RNA; about 2 min incubation; temperature not stated; low values mean tight binding.

For series [2], the target named is T2, AtGRP7YtoG Y103G;Y111G;Y118G;Y131G;Y138G;Y148G;Y159G;Y167G (Arabidopsis thaliana) (UniProt Q03250).
T2 sequence: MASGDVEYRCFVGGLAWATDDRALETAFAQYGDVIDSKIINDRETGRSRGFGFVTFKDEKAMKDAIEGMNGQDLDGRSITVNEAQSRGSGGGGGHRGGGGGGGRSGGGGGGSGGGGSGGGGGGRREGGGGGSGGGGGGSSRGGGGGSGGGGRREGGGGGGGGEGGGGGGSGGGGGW
Conditions: 25 mM Tris-HCl pH 8.0, 150 mM NaCl (150 mM LiCl for Sc1 LiCl), 1 mM DTT, 0.1 mg/ml BSA; 20 nM Cy5-RNA; about 2 min incubation; temperature not stated; low values mean tight binding.

The target of series [3] is T3, AtGRP7short (Arabidopsis thaliana) (UniProt Q03250).
T3 sequence: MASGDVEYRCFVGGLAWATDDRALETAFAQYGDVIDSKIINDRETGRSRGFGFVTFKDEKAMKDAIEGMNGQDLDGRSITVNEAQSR
The following applies: 25 mM Tris-HCl pH 8.0, 150 mM NaCl (150 mM LiCl for Sc1 LiCl), 1 mM DTT, 0.1 mg/ml BSA; 20 nM Cy5-RNA; about 2 min incubation; temperature not stated; low values mean tight binding.

The target of series [4] is T4, AtGRP7StoE S132E;S139E (Arabidopsis thaliana) (UniProt Q03250).
T4 sequence: T2 sequence with G103Y, G111Y, G118Y, G131Y, S132E, G138Y, S139E, G148Y, G159Y, G167Y
The following applies: 25 mM Tris-HCl pH 8.0, 150 mM NaCl (150 mM LiCl for Sc1 LiCl), 1 mM DTT, 0.1 mg/ml BSA; 20 nM Cy5-RNA; about 2 min incubation; temperature not stated; low values mean tight binding.

Series [5] has as its target T5, AtGRP7YtoE Y103E;Y111E;Y118E;Y131E;Y138E;Y148E;Y159E;Y167E (Arabidopsis thaliana) (UniProt Q03250).
T5 sequence: T2 sequence with G103E, G111E, G118E, G131E, G138E, G148E, G159E, G167E
Conditions: 25 mM Tris-HCl pH 8.0, 150 mM NaCl (150 mM LiCl for Sc1 LiCl), 1 mM DTT, 0.1 mg/ml BSA; 20 nM Cy5-RNA; about 2 min incubation; temperature not stated; low values mean tight binding.

Series [6] concerns the target T6, AtGRP7 (Arabidopsis thaliana) (UniProt Q03250).
T6 sequence: T2 sequence with G103Y, G111Y, G118Y, G131Y, G138Y, G148Y, G159Y, G167Y
Conditions: 25 mM Tris-HCl pH 8.0, 150 mM NaCl (150 mM LiCl for Sc1 LiCl), 1 mM DTT, 0.1 mg/ml BSA; 20 nM Cy5-RNA; about 2 min incubation; temperature not stated; low values mean tight binding.

The target in series [7] is T7, BnGRP7 (Brassica napus) (UniProt A0A078J5Z4).
T7 sequence: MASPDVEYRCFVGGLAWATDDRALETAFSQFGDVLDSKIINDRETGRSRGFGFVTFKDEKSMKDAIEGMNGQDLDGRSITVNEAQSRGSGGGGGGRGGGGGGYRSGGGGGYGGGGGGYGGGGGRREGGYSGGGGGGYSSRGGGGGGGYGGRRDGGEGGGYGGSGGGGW
Conditions: 25 mM Tris-HCl pH 8.0, 150 mM NaCl (150 mM LiCl for Sc1 LiCl), 1 mM DTT, 0.1 mg/ml BSA; 20 nM Cy5-RNA; about 2 min incubation; temperature not stated; low values mean tight binding.

The target of series [8] is T8, AtBnGRP7 (Arabidopsis thaliana / Brassica napus chimera) (UniProt Q03250).
T8 sequence: T7 sequence with P4G, S29A, F31Y, L35I, S61A
Conditions: 25 mM Tris-HCl pH 8.0, 150 mM NaCl (150 mM LiCl for Sc1 LiCl), 1 mM DTT, 0.1 mg/ml BSA; 20 nM Cy5-RNA; about 2 min incubation; temperature not stated; low values mean tight binding.

Series [9] has as its target T9, AtGRP7StoG S132G;S139G (Arabidopsis thaliana) (UniProt Q03250).
T9 sequence: T2 sequence with G103Y, G111Y, G118Y, G131Y, S132G, G138Y, S139G, G148Y, G159Y, G167Y
Conditions: 25 mM Tris-HCl pH 8.0, 150 mM NaCl (150 mM LiCl for Sc1 LiCl), 1 mM DTT, 0.1 mg/ml BSA; 20 nM Cy5-RNA; about 2 min incubation; temperature not stated; low values mean tight binding.

For series [10], the system named is AtGRP7StoG (Arabidopsis thaliana). The following applies: MST: 25 mM Tris-HCl pH 8.0, 150 mM NaCl, 1 mM DTT, 0.1 mg/ml BSA; 20 nM Cy5-RNA; protein titrated from 50-75 uM; about 2 min incubation; temperature not stated.
The test system of series [11] is AtBnGRP7 (Arabidopsis thaliana / Brassica napus chimera). The following applies: MST: 25 mM Tris-HCl pH 8.0, 150 mM NaCl, 1 mM DTT, 0.1 mg/ml BSA; 20 nM Cy5-RNA; protein titrated from 50-75 uM; about 2 min incubation; temperature not stated.
The subject of series [12] is AtGRP7YtoG (Arabidopsis thaliana). Conditions: MST: 25 mM Tris-HCl pH 8.0, 150 mM NaCl, 1 mM DTT, 0.1 mg/ml BSA; 20 nM Cy5-RNA; protein titrated from 50-75 uM; about 2 min incubation; temperature not stated.
In series [13] the test system is AtGRP7 (Arabidopsis thaliana). Conditions: MST: 25 mM Tris-HCl pH 8.0, 150 mM NaCl, 1 mM DTT, 0.1 mg/ml BSA; 20 nM Cy5-RNA; protein titrated from 50-75 uM; about 2 min incubation; temperature not stated.
Series [14] concerns BnGRP7 (Brassica napus). The following applies: MST: 25 mM Tris-HCl pH 8.0, 150 mM NaCl, 1 mM DTT, 0.1 mg/ml BSA; 20 nM Cy5-RNA; protein titrated from 50-75 uM; about 2 min incubation; temperature not stated.
Series [15] relates to AtGRP7StoE (Arabidopsis thaliana). The following applies: MST: 25 mM Tris-HCl pH 8.0, 150 mM NaCl, 1 mM DTT, 0.1 mg/ml BSA; 20 nM Cy5-RNA; protein titrated from 50-75 uM; about 2 min incubation; temperature not stated.
Series [16] deals with eYFP-AtGRP7RGG (Arabidopsis thaliana). Conditions: MST: 25 mM Tris-HCl pH 8.0, 150 mM NaCl, 1 mM DTT, 0.1 mg/ml BSA; 20 nM Cy5-RNA; protein titrated from 50-75 uM; about 2 min incubation; temperature not stated.
In series [17] the test system is AtGRP7short (Arabidopsis thaliana). Conditions: MST: 25 mM Tris-HCl pH 8.0, 150 mM NaCl, 1 mM DTT, 0.1 mg/ml BSA; 20 nM Cy5-RNA; protein titrated from 50-75 uM; about 2 min incubation; temperature not stated.
The target in series [18] is T6, AtGRP7 (Arabidopsis thaliana). The following applies: 25 mM Tris-HCl pH 8.0, 150 mM NaCl (150 mM LiCl for Sc1 LiCl), 1 mM DTT, 0.1 mg/ml BSA; 20 nM Cy5-RNA; about 2 min incubation; temperature not stated; low values mean tight binding. This is another data set of the same source.

Positions count from the first letter of the chain named.

The Kd is the free concentration of one partner at which half of the binding sites on the other are occupied at equilibrium, for simple one-to-one binding. In the case of “AUUUUGUUCUGGUUCUGCUUUAGAUUUGAUGU [AtGRP7 3'UTR fragment (7-UTR-WT, 32 nt)]”, the Kd was 31 nM in series [1]; 356 nM in series [2]; 12.2 µM in series [3]; 72 nM in [4]; 701 nM in series [5]; 158 nM in series [6]. In addition, the Kd came out at 17 nM in the series with BnGRP7 (Brassica napus) [7], 18 nM in series [8] and 52 nM in series [9].

Take AtCOR15A pre-mRNA: the Kd in series [10] came to 2230 nM; in series [11] it was 741 nM; in series [12], 3.75 µM; in [13], 150 nM; in the series on BnGRP7 (Brassica napus) [14], 323 nM; in [15], 738 nM.

On to AtGRP7 3'UTR fragment (7-UTR-WT), for which the Kd in series [16] is 31 nM; in series [13], 160 nM.

Consider AtGRP7 CDS RNA, for which the Kd in series [16] amounted to 2100 nM; in series [13] it was 182 nM.

On to BnPARCL CDS RNA, for which the Kd in [17] amounted to 4.07 µM; in [13], 99.7 nM.

Consider “GCUGCGGUGUGGAAGGAGUGGUCGGGUUGCGCAGCG [Sc1 G-quadruplex RNA]”, for which the figures for the dissociation constant Kd in [18] and in series [6] were 463 nM and 6900 nM, respectively.

As for “GGAUGGCGUCCGGUGAUGUUGAGUAUCGGUGCUUCGUUGGAGGUCUAGCAUGGGCCACUGAUGACAGAGCUCUUGAGACUGCCUUCGCUCAAUACGGCGACGUUAUUGAUUCCAAGAUCAUUAACGAUCGUGAGACUGGAAGAUCAAGGGGAUUCGGAUUCGUCACCUUCAAGGAUGAGAAAGCCAUGAAGGAUGCGAUUGAGGGAAUGAACGGACAAGAUCUCGAUGGCCGUAGCAUCACUGUUAACGAGGCUCAGUCACGAGGAAGCGGUGGCGGCGGAGGCCACCGUGGAGGUGGUGGCGGUGGAUACCGCAGCGGCGGUGGUGGAGGUUACUCCGGUGGAGGUGGUAGCUACGGAGGUGGCGGCGGUAGACGCGAGGGUGGAGGAGGAUACAGCGGCGGCGGCGGCGGUUACUCCUCAAGAGGUGGUGGUGGCGGAAGCUACGGUGGUGGAAGACGUGAGGGAGGAGGAGGAUACGGUGGUGGUGAAGGAGGAGGUUACGGAGGAAGCGGUGGUGGUGGAGGAUGGUAA [AtGRP7]”, the dissociation constant Kd came out at 1520 nM in series [1]; 7390 nM in series [2]; 536 nM in series [4]; 5400 nM in [5]; 182 nM in series [6]; 3720 nM with BnGRP7 (Brassica napus) [7]. Besides, the equilibrium dissociation constant (Kd) in [8] turned out to be 107 nM; in series [9] it was 1170 nM.

Take UCUUGUUCUGGUUUGGUUUUGAAC [Bn-miRnovel2]: the dissociation constant (Kd) was found to be 41 nM in series [2]; 4.49 µM in [3]; 29 nM in series [4]; 267 nM in series [5]; 260 nM in [6]; 5.8 nM with BnGRP7 (Brassica napus) [7]. In addition, the Kd in series [8] was determined as 35 nM; in series [9] it was 22 nM.

Consider miR164, for which the equilibrium dissociation constant (Kd) in [17] was found to be 5.93 µM; in series [13], 42 nM; in the series with BnGRP7 (Brassica napus) [14] it was 21 nM.
